Non-standard residues stand in square brackets, D forms with d. No end group written: not given here. Ala(4-thiazolyl) = N[C@@H](Cc1cscn1)C(=O)O; 1Nal = N[C@@H](Cc1cccc2ccccc12)C(=O)O; Phe(2-F) = N[C@@H](Cc1ccccc1F)C(=O)O; Chg = N[C@H](C(=O)O)C1CCCCC1; Nle = CCCC[C@H](N)C(=O)O
B1: SEQ ID NO: 20 (peptide)
peptide: [Ala(4-thiazolyl)]SQGTFTSD[Chg]SKQ[Nle]ESRRAQDFIEWLLATGPESGAPPPS-OH
modifications: N-terminus assumed
SMILES: CCCC[C@H](NC(=O)[C@H](CCC(N)=O)NC(=O)[C@H](CCCCN)NC(=O)[C@H](CO)NC(=O)[C@@H](NC(=O)[C@H](CC(=O)O)NC(=O)[C@H](CO)NC(=O)[C@@H](NC(=O)[C@H](Cc1ccccc1)NC(=O)[C@@H](NC(=O)CNC(=O)[C@H](CCC(N)=O)NC(=O)[C@H](CO)NC(=O)[C@@H](N)Cc1cscn1)[C@@H](C)O)[C@@H](C)O)C1CCCCC1)C(=O)N[C@@H](CCC(=O)O)C(=O)N[C@@H](CO)C(=O)N[C@@H](CCCNC(=N)N)C(=O)N[C@@H](CCCNC(=N)N)C(=O)N[C@@H](C)C(=O)N[C@@H](CCC(N)=O)C(=O)N[C@@H](CC(=O)O)C(=O)N[C@@H](Cc1ccccc1)C(=O)N[C@H](C(=O)N[C@@H](CCC(=O)O)C(=O)N[C@@H](Cc1c[nH]c2ccccc12)C(=O)N[C@@H](CC(C)C)C(=O)N[C@@H](CC(C)C)C(=O)N[C@@H](C)C(=O)N[C@H](C(=O)NCC(=O)N1CCC[C@H]1C(=O)N[C@@H](CCC(=O)O)C(=O)N[C@@H](CO)C(=O)NCC(=O)N[C@@H](C)C(=O)N1CCC[C@H]1C(=O)N1CCC[C@H]1C(=O)N1CCC[C@H]1C(=O)N[C@@H](CO)C(=O)O)[C@@H](C)O)[C@@H](C)CC
B2: SEQ ID NO: 9 (peptide)
peptide: [Ala(4-thiazolyl)]SQGTFTSDVSKQLESRRAQEFIEWLLAGGPESGAPPPS-OH
modifications: N-terminus assumed
SMILES: CC[C@H](C)[C@H](NC(=O)[C@H](Cc1ccccc1)NC(=O)[C@H](CCC(=O)O)NC(=O)[C@H](CCC(N)=O)NC(=O)[C@H](C)NC(=O)[C@H](CCCNC(=N)N)NC(=O)[C@H](CCCNC(=N)N)NC(=O)[C@H](CO)NC(=O)[C@H](CCC(=O)O)NC(=O)[C@H](CC(C)C)NC(=O)[C@H](CCC(N)=O)NC(=O)[C@H](CCCCN)NC(=O)[C@H](CO)NC(=O)[C@@H](NC(=O)[C@H](CC(=O)O)NC(=O)[C@H](CO)NC(=O)[C@@H](NC(=O)[C@H](Cc1ccccc1)NC(=O)[C@@H](NC(=O)CNC(=O)[C@H](CCC(N)=O)NC(=O)[C@H](CO)NC(=O)[C@@H](N)Cc1cscn1)[C@@H](C)O)[C@@H](C)O)C(C)C)C(=O)N[C@@H](CCC(=O)O)C(=O)N[C@@H](Cc1c[nH]c2ccccc12)C(=O)N[C@@H](CC(C)C)C(=O)N[C@@H](CC(C)C)C(=O)N[C@@H](C)C(=O)NCC(=O)NCC(=O)N1CCC[C@H]1C(=O)N[C@@H](CCC(=O)O)C(=O)N[C@@H](CO)C(=O)NCC(=O)N[C@@H](C)C(=O)N1CCC[C@H]1C(=O)N1CCC[C@H]1C(=O)N1CCC[C@H]1C(=O)N[C@@H](CO)C(=O)O
B3: SEQ ID NO: 13 (peptide)
peptide: [Ala(4-thiazolyl)]SQGTFTSDFSKQ[Nle]ESRRAQDFIEWLLATGPESGAPPPS-OH
modifications: N-terminus assumed
SMILES: CCCC[C@H](NC(=O)[C@H](CCC(N)=O)NC(=O)[C@H](CCCCN)NC(=O)[C@H](CO)NC(=O)[C@H](Cc1ccccc1)NC(=O)[C@H](CC(=O)O)NC(=O)[C@H](CO)NC(=O)[C@@H](NC(=O)[C@H](Cc1ccccc1)NC(=O)[C@@H](NC(=O)CNC(=O)[C@H](CCC(N)=O)NC(=O)[C@H](CO)NC(=O)[C@@H](N)Cc1cscn1)[C@@H](C)O)[C@@H](C)O)C(=O)N[C@@H](CCC(=O)O)C(=O)N[C@@H](CO)C(=O)N[C@@H](CCCNC(=N)N)C(=O)N[C@@H](CCCNC(=N)N)C(=O)N[C@@H](C)C(=O)N[C@@H](CCC(N)=O)C(=O)N[C@@H](CC(=O)O)C(=O)N[C@@H](Cc1ccccc1)C(=O)N[C@H](C(=O)N[C@@H](CCC(=O)O)C(=O)N[C@@H](Cc1c[nH]c2ccccc12)C(=O)N[C@@H](CC(C)C)C(=O)N[C@@H](CC(C)C)C(=O)N[C@@H](C)C(=O)N[C@H](C(=O)NCC(=O)N1CCC[C@H]1C(=O)N[C@@H](CCC(=O)O)C(=O)N[C@@H](CO)C(=O)NCC(=O)N[C@@H](C)C(=O)N1CCC[C@H]1C(=O)N1CCC[C@H]1C(=O)N1CCC[C@H]1C(=O)N[C@@H](CO)C(=O)O)[C@@H](C)O)[C@@H](C)CC
B4: SEQ ID NO: 18 (peptide)
peptide: [Ala(4-thiazolyl)]SQGTFTSD[Phe(2-F)]SKQ[Nle]ESRRAQDFIEWLLATGPESGAPPPS-OH
modifications: N-terminus assumed
SMILES: CCCC[C@H](NC(=O)[C@H](CCC(N)=O)NC(=O)[C@H](CCCCN)NC(=O)[C@H](CO)NC(=O)[C@H](Cc1ccccc1F)NC(=O)[C@H](CC(=O)O)NC(=O)[C@H](CO)NC(=O)[C@@H](NC(=O)[C@H](Cc1ccccc1)NC(=O)[C@@H](NC(=O)CNC(=O)[C@H](CCC(N)=O)NC(=O)[C@H](CO)NC(=O)[C@@H](N)Cc1cscn1)[C@@H](C)O)[C@@H](C)O)C(=O)N[C@@H](CCC(=O)O)C(=O)N[C@@H](CO)C(=O)N[C@@H](CCCNC(=N)N)C(=O)N[C@@H](CCCNC(=N)N)C(=O)N[C@@H](C)C(=O)N[C@@H](CCC(N)=O)C(=O)N[C@@H](CC(=O)O)C(=O)N[C@@H](Cc1ccccc1)C(=O)N[C@H](C(=O)N[C@@H](CCC(=O)O)C(=O)N[C@@H](Cc1c[nH]c2ccccc12)C(=O)N[C@@H](CC(C)C)C(=O)N[C@@H](CC(C)C)C(=O)N[C@@H](C)C(=O)N[C@H](C(=O)NCC(=O)N1CCC[C@H]1C(=O)N[C@@H](CCC(=O)O)C(=O)N[C@@H](CO)C(=O)NCC(=O)N[C@@H](C)C(=O)N1CCC[C@H]1C(=O)N1CCC[C@H]1C(=O)N1CCC[C@H]1C(=O)N[C@@H](CO)C(=O)O)[C@@H](C)O)[C@@H](C)CC
B5: SEQ ID NO: 21 (peptide)
peptide: [Ala(4-thiazolyl)]SQGTFTSD[Phe(2-F)]SKQLESRRAQDFIEWLLATGPESGAPPPS-OH
modifications: N-terminus assumed
SMILES: CC[C@H](C)[C@H](NC(=O)[C@H](Cc1ccccc1)NC(=O)[C@H](CC(=O)O)NC(=O)[C@H](CCC(N)=O)NC(=O)[C@H](C)NC(=O)[C@H](CCCNC(=N)N)NC(=O)[C@H](CCCNC(=N)N)NC(=O)[C@H](CO)NC(=O)[C@H](CCC(=O)O)NC(=O)[C@H](CC(C)C)NC(=O)[C@H](CCC(N)=O)NC(=O)[C@H](CCCCN)NC(=O)[C@H](CO)NC(=O)[C@H](Cc1ccccc1F)NC(=O)[C@H](CC(=O)O)NC(=O)[C@H](CO)NC(=O)[C@@H](NC(=O)[C@H](Cc1ccccc1)NC(=O)[C@@H](NC(=O)CNC(=O)[C@H](CCC(N)=O)NC(=O)[C@H](CO)NC(=O)[C@@H](N)Cc1cscn1)[C@@H](C)O)[C@@H](C)O)C(=O)N[C@@H](CCC(=O)O)C(=O)N[C@@H](Cc1c[nH]c2ccccc12)C(=O)N[C@@H](CC(C)C)C(=O)N[C@@H](CC(C)C)C(=O)N[C@@H](C)C(=O)N[C@H](C(=O)NCC(=O)N1CCC[C@H]1C(=O)N[C@@H](CCC(=O)O)C(=O)N[C@@H](CO)C(=O)NCC(=O)N[C@@H](C)C(=O)N1CCC[C@H]1C(=O)N1CCC[C@H]1C(=O)N1CCC[C@H]1C(=O)N[C@@H](CO)C(=O)O)[C@@H](C)O
B6: SEQ ID NO: 19 (peptide)
peptide: [Ala(4-thiazolyl)]SQGTFTSD[1Nal]SKQ[Nle]ESRRAQDFIEWLLATGPESGAPPPS-OH
modifications: N-terminus assumed
SMILES: CCCC[C@H](NC(=O)[C@H](CCC(N)=O)NC(=O)[C@H](CCCCN)NC(=O)[C@H](CO)NC(=O)[C@H](Cc1cccc2ccccc12)NC(=O)[C@H](CC(=O)O)NC(=O)[C@H](CO)NC(=O)[C@@H](NC(=O)[C@H](Cc1ccccc1)NC(=O)[C@@H](NC(=O)CNC(=O)[C@H](CCC(N)=O)NC(=O)[C@H](CO)NC(=O)[C@@H](N)Cc1cscn1)[C@@H](C)O)[C@@H](C)O)C(=O)N[C@@H](CCC(=O)O)C(=O)N[C@@H](CO)C(=O)N[C@@H](CCCNC(=N)N)C(=O)N[C@@H](CCCNC(=N)N)C(=O)N[C@@H](C)C(=O)N[C@@H](CCC(N)=O)C(=O)N[C@@H](CC(=O)O)C(=O)N[C@@H](Cc1ccccc1)C(=O)N[C@H](C(=O)N[C@@H](CCC(=O)O)C(=O)N[C@@H](Cc1c[nH]c2ccccc12)C(=O)N[C@@H](CC(C)C)C(=O)N[C@@H](CC(C)C)C(=O)N[C@@H](C)C(=O)N[C@H](C(=O)NCC(=O)N1CCC[C@H]1C(=O)N[C@@H](CCC(=O)O)C(=O)N[C@@H](CO)C(=O)NCC(=O)N[C@@H](C)C(=O)N1CCC[C@H]1C(=O)N1CCC[C@H]1C(=O)N1CCC[C@H]1C(=O)N[C@@H](CO)C(=O)O)[C@@H](C)O)[C@@H](C)CC

Assays:
human GLP-1 receptor = human GLP-1 receptor (human, UniProt P43220 24-463); assay: cell-based or functional assay
human glucagon receptor = human glucagon receptor (human, UniProt P47871 26-477); assay: cell-based or functional assay
Chain of human glucagon receptor (P47871 26-477): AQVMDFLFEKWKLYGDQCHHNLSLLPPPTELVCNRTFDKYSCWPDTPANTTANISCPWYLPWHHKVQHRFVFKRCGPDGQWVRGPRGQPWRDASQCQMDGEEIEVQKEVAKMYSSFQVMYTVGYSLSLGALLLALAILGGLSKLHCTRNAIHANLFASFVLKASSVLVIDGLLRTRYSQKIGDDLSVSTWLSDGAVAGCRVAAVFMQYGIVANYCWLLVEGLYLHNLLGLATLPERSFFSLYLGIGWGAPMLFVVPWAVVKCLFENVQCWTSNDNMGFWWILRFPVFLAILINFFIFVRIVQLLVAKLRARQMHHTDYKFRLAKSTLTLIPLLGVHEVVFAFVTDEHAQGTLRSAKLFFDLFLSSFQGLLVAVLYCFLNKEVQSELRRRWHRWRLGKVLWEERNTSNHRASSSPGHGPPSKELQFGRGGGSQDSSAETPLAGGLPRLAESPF

Binder	EC50 hGLP-1 R [pM], cAMP formation (human GLP-1 receptor)	EC50 hGLUC R [pM], cAMP formation (human glucagon receptor)
B1	38900 pM	3.8 pM
B2	12200 pM	2.2 pM
B3	32100 pM	3.1 pM
B4	25800 pM	3.1 pM
XSQGTFTSDISKQXESRRAQEFIEWLLATGPESGAPPPS (Tza (L-4-thiazolylalanine) at position 1; Nle at position 14; C-terminal -OH) [SEQ ID NO: 14]	52900 pM	1.2 pM
XSQGTFTSDYSKQXESRRAQEFIEWLLATGPESGAPPPS (Tza (L-4-thiazolylalanine) at position 1; Nle at position 14; C-terminal -OH) [SEQ ID NO: 17]	6940 pM	1 pM
B5	49700 pM	1.4 pM
B6	6640 pM	0.7 pM

— patent US20150368311A1 (Sanofi, published 2015)
